These results are taken from US7005415B1.

This assay concerns the target FGF-1a produced in E. coli (human) (UniProt P05230). Conditions: scale: % band intensity remaining after 0.01% trypsin.

As to trypsin (enzyme), the intensity of the remaining band after trypsin treatment (SDS-denatured electrophoresis, blot) worked out at 6.
